Experimental data as given in article PMC9965349 (Viruses, 2023).
Read-outs that look alike come from different tables or passages of the source. Residues, ends and D or L forms follow the SMILES beside them.

Legend:
PEDV S1 protein = PEDV S1 protein (Porcine epidemic diarrhea virus, UniProt Q91AV1); experiment: SPR kinetic measurement (Biacore X100, CM5 chip); assay type: binding
Vero cells = experiment: Cytotoxicity assay (CCK-8); assay type: cell-based, African green monkey
[1] = biological target: T1, porcine epidemic diarrhea virus S protein (PEDV-S1) (porcine epidemic diarrhea virus); experiment: SPR; details: both partners purified
T1 chain: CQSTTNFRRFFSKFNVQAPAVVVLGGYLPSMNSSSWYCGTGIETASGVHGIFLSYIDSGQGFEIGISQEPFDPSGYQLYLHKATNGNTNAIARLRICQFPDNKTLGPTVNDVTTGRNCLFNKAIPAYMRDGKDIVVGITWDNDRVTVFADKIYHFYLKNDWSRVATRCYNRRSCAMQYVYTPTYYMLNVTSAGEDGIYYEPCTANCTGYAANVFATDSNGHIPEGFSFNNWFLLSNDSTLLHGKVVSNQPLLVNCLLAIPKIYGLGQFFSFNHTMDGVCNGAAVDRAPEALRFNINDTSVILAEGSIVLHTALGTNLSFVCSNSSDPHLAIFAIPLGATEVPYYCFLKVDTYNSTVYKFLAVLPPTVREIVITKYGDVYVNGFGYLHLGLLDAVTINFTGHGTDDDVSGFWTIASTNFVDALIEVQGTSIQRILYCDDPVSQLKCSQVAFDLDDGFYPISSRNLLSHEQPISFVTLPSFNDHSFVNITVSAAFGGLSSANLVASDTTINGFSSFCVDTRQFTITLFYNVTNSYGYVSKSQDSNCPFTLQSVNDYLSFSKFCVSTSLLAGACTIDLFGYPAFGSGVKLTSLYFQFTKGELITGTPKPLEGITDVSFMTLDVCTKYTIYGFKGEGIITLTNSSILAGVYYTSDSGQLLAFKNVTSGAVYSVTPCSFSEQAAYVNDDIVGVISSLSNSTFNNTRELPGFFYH

[2] = biological target: T1, porcine epidemic diarrhea virus S …; experiment: ELISA; details: both partners purified
[3] = SPR, 1:1 binding fit, peptide 0.78125-25 μM, HBS-EP pH 7.4, 30 μL/min, 120 s association, 120 s dissociation

Molecule | Kd (PEDV S1 protein) [nM] | Kd [1] [nM] | koff [1] [s⁻¹] | kon [1] [M⁻¹ s⁻¹] | P/N value [2] | further results
C[C@H](NC(=O)[C@H](CCC(=O)O)NC(=O)[C@H](CCCCN)NC(=O)[C@H](Cc1c[nH]c2ccccc12)NC(=O)[C@@H](N)Cc1ccccc1)C(=O)N[C@@H](CCCCN)C(=O)O [compound 110616] (H-FWKEAK-OH) | 772 |  |  |  |  | 
N=C(N)NCCC[C@H](NC(=O)[C@H](CCCCN)NC(=O)[C@H](CO)NC(=O)[C@H](CCCCN)NC(=O)[C@H](Cc1c[nH]c2ccccc12)NC(=O)[C@@H](N)Cc1ccccc1)C(=O)O [compound 110766] | 216 |  |  |  |  | Cell viability (CCK-8) (Vero cells; 0.78125-400 µM, 24 h at 37 °C, normalized to control without peptide): over 90%; Cytotoxicity (in words) (Vero cells; CCK-8): not toxic to vero cells
N=C(N)NCCC[C@H](NC(=O)[C@H](CC(N)=O)NC(=O)[C@H](Cc1ccccc1)NC(=O)[C@H](Cc1c[nH]cn1)NC(=O)[C@@H](N)Cc1c[nH]c2ccccc12)C(=O)N1CCC[C@H]1C(=O)O [compound 115042] (H-WHFNRP-OH) | 6520 |  |  |  |  | 
FWKQNKFLFWKQNKCL [compound 110490] |  |  |  |  |  | Ka (PEDV S1 protein; [3]): 5743 M⁻¹ s⁻¹; Kd (PEDV S1 protein; [3]): 0.03522 s⁻¹
FWKEAK [peptide 110616] |  | 772 | 0.0236 | 30500 | > 67.9 | 
FWKQNKFLFWKQNKCL [peptide 110490] |  | 1500 | 0.0352 | 5740 | > 67.9 | 
WHFNRP [peptide 115042] |  | 6520 | 0.0225 | 3450 | > 67.9 | 
FWKSKR [peptide 110766] |  | 216 |  |  |  | 
